The values that follow come from patent EP3177737B1 (Arizona Board of Regents on behalf of the University of …, dated 2020).

The target in test [1] is T1, human melanocortin 3 receptor (human, UniProt P41968 1-323).
T1 construct: whole, on cells; also called hMC3R; hMC3 receptor
As to the kind of experiment: assay not given; taken as the competition binding assay on HEK293 cells.

The target in test [2] is T2, human melanocortin 5 receptor (human, UniProt P33032 1-325).
T2 construct: whole, on cells; also called hMC5R; hMC5 receptor
T2 sequence (P33032 whole entry): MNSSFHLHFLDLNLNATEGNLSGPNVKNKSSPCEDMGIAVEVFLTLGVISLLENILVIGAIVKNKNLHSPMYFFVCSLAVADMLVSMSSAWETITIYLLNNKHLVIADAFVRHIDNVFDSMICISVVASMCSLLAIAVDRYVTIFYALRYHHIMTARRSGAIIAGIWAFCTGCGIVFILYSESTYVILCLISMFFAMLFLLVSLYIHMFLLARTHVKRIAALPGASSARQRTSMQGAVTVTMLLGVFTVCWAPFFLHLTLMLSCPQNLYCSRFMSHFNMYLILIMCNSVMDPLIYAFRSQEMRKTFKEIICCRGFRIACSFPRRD
Description: competition with [125I]-NDP-alpha-MSH on whole HEK293 cells expressing the receptor.

Test [3] concerns the target T3, human melanocortin 1 receptor (human, UniProt Q01726 1-317).
T3 construct: whole, on cells; also called hMC1R; hMC1 receptor
Description: competition with [125I]-NDP-alpha-MSH on A375 human melanoma cells.

Test [4] deals with T3, human melanocortin 1 receptor. Description: competition with [125I]-NDP-alpha-MSH on whole HEK293 cells expressing the receptor.

T3 sequence (Q01726 whole entry): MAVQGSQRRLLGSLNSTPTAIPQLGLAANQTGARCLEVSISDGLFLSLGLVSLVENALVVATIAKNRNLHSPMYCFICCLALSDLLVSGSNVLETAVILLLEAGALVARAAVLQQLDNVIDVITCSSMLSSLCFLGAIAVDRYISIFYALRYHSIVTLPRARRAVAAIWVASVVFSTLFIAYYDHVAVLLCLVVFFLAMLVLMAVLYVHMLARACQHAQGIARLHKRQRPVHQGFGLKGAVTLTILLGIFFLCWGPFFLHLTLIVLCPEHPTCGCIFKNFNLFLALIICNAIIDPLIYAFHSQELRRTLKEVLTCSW
T1 sequence (P41968 whole entry): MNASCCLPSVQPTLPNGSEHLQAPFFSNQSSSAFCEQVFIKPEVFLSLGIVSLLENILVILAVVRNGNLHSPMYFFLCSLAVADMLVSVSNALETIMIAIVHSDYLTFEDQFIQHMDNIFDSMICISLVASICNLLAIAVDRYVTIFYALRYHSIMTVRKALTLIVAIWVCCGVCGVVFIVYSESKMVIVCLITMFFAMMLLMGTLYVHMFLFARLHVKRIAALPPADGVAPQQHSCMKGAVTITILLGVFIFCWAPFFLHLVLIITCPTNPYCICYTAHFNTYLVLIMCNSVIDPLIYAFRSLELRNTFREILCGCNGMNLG

B1: Peptide 15: Ac-Nle-c[Asp-(NMe)His-nal-(NMe)Arg-Trp-Lys]-NH2 (peptide)
peptide: LDHXRWK
modifications: N-terminal acetyl; Nle at 4; D-Nal(2') (nal) at 7; Asp5-Lys10 side-chain lactam ring; C-terminal amide; backbone N-methyl on His6 and Arg8 (alpha-MSH numbering 4-10)
The IC50 is the midpoint of a concentration-inhibition curve. Low readings indicate greater potency, high ones weaker potency. Molecule B1 showed a binding affinity in test [1] of 15 nM. The binding result in test [2] is listed as “binds”. The molecule also yielded a concentration for half-maximal inhibition (IC50) in test [3] of 0.0148 µM.

B2: Peptide 6: Ac-Nle-c[Asp-(NMe)His-nal-Arg-Trp-Lys]-NH2 (peptide)
peptide: LDHXRWK
modifications: N-terminal acetyl; Nle at 4; D-Nal(2') (nal) at 7; Asp5-Lys10 side-chain lactam ring; C-terminal amide; backbone N-methyl on His6 (alpha-MSH numbering 4-10)
With B2, in test [2], the binding result is given as “binds”.

B3: Peptide 11: Ac-Nle-c[Asp-His-nal-(NMe)Arg-(NMe)Trp-Lys]-NH2 (peptide)
peptide: LDHXRWK
modifications: N-terminal acetyl; Nle at 4; D-Nal(2') (nal) at 7; Asp5-Lys10 side-chain lactam ring; C-terminal amide; backbone N-methyl on Arg8 and Trp9 (alpha-MSH numbering 4-10)
Regarding B3, the binding result in test [2] is on record as “binds”.

B4: Peptide 2: Ac-Nle-c[Asp-His-nal-Arg-Trp-(NMe)Lys]-NH2 (peptide)
peptide: LDHXRWK
modifications: N-terminal acetyl; Nle at 4; D-Nal(2') (nal) at 7; Asp5-Lys10 side-chain lactam ring; C-terminal amide; backbone N-methyl on Lys10 (alpha-MSH numbering 4-10)
Consider B4, for which the binding result in test [2] is “binds”.

B5: Peptide 7: Ac-Nle-c[Asp-His-nal-Arg-(NMe)Trp-(NMe)Lys]-NH2 (peptide)
peptide: LDHXRWK
modifications: N-terminal acetyl; Nle at 4; D-Nal(2') (nal) at 7; Asp5-Lys10 side-chain lactam ring; C-terminal amide; backbone N-methyl on Trp9 and Lys10 (alpha-MSH numbering 4-10)
Take B5: the binding result in test [2] is given as “binds”.

B6: Peptide 19: Ac-Nle-c[Asp-(NMe)His-nal-Arg-(NMe)Trp-(NMe)Lys]-NH2 (peptide)
peptide: LDHXRWK
modifications: N-terminal acetyl; Nle at 4; D-Nal(2') (nal) at 7; Asp5-Lys10 side-chain lactam ring; C-terminal amide; backbone N-methyl on His6, Trp9 and Lys10 (alpha-MSH numbering 4-10)
Regarding B6, the binding result in test [2] is on record as “binds”.

B7: Peptide 28: Ac-Nle-c[Asp-(NMe)His-nal-(NMe)Arg-(NMe)Trp-(NMe)Lys]-NH2 (peptide)
peptide: LDHXRWK
modifications: N-terminal acetyl; Nle at 4; D-Nal(2') (nal) at 7; Asp5-Lys10 side-chain lactam ring; C-terminal amide; backbone N-methyl on His6, Arg8, Trp9 and Lys10 (alpha-MSH numbering 4-10)
As for B7, the binding result in test [2] is given as “binds”.

B8: Peptide 32 (penta-N-methylated compound 32): Ac-Nle-c[Asp-(NMe)His-(NMe)nal-(NMe)Arg-(NMe)Trp-(NMe)Lys]-NH2 (peptide)
peptide: LDHXRWK
modifications: N-terminal acetyl; Nle at 4; D-Nal(2') (nal) at 7; Asp5-Lys10 side-chain lactam ring; C-terminal amide; backbone N-methyl on His6, nal7, Arg8, Trp9 and Lys10 (alpha-MSH numbering 4-10)
notes: NO; 32; No. 32 to the hMC1R antagonist
As to B8, the IC50 in test [4] stood at 0.068 µM.

B9: Peptide 3: Ac-Nle-c[Asp-His-nal-Arg-(NMe)Trp-Lys]-NH2 (peptide)
peptide: LDHXRWK
modifications: N-terminal acetyl; Nle at 4; D-Nal(2') (nal) at 7; Asp5-Lys10 side-chain lactam ring; C-terminal amide; backbone N-methyl on Trp9 (alpha-MSH numbering 4-10)
With B9, the binding result in test [2] was “binds”.

B10: Peptide 10: Ac-Nle-c[Asp-(NMe)His-nal-Arg-Trp-(NMe)Lys]-NH2 (peptide)
peptide: LDHXRWK
modifications: N-terminal acetyl; Nle at 4; D-Nal(2') (nal) at 7; Asp5-Lys10 side-chain lactam ring; C-terminal amide; backbone N-methyl on His6 and Lys10 (alpha-MSH numbering 4-10)
On to B10, for which the binding result in test [2] is on record as “binds”.

B11: Peptide 14: Ac-Nle-c[Asp-His-(NMe)nal-(NMe)Arg-Trp-Lys]-NH2 (peptide)
peptide: LDHXRWK
modifications: N-terminal acetyl; Nle at 4; D-Nal(2') (nal) at 7; Asp5-Lys10 side-chain lactam ring; C-terminal amide; backbone N-methyl on nal7 and Arg8 (alpha-MSH numbering 4-10)
Consider B11, for which the binding result in test [2] is given as “binds”.

B12: Peptide 16: Ac-Nle-c[Asp-(NMe)His-(NMe)nal-Arg-Trp-Lys]-NH2 (peptide)
peptide: LDHXRWK
modifications: N-terminal acetyl; Nle at 4; D-Nal(2') (nal) at 7; Asp5-Lys10 side-chain lactam ring; C-terminal amide; backbone N-methyl on His6 and nal7 (alpha-MSH numbering 4-10)
As for B12, in test [2], the binding result is given as “binds”.

B13: Peptide 8: Ac-Nle-c[Asp-His-nal-(NMe)Arg-Trp-(NMe)Lys]-NH2 (peptide)
peptide: LDHXRWK
modifications: N-terminal acetyl; Nle at 4; D-Nal(2') (nal) at 7; Asp5-Lys10 side-chain lactam ring; C-terminal amide; backbone N-methyl on Arg8 and Lys10 (alpha-MSH numbering 4-10)
For B13, the binding result in test [2] is listed as “binds”.

B14: Peptide 4: Ac-Nle-c[Asp-His-nal-(NMe)Arg-Trp-Lys]-NH2 (peptide)
peptide: LDHXRWK
modifications: N-terminal acetyl; Nle at 4; D-Nal(2') (nal) at 7; Asp5-Lys10 side-chain lactam ring; C-terminal amide; backbone N-methyl on Arg8 (alpha-MSH numbering 4-10)
Take B14: the binding result in test [2] was “binds”.
